Results from PMC6635623.
Values joined by “and” are separate entries in the source; they are usually repeats but may differ in a detail not shown here. Equal entries are not always repeated.

Target: Hfq-FLAG (Yersinia pestis Hfq with C-terminal 3×FLAG tag) (Yersinia pestis)
Assay: […]; 25 mM Tris-HCl (pH 8.0) […]

With “Hfq-FLAG (Yersinia pestis Hfq with C-terminal 3×FLAG tag) (natural protein)” the stoichiometry N was 3 and 6.
